# How the values were obtained:
# [1] = target: AMC008 SOSIP.v9 (HIV-1 clade B, AMC008); assay: negative-stain EM; purified SOSIPs incubated with Adjuplex, on carbon-covered copper grids, 2% uranyl formate; 2D class averages
# [2] = target: AMC008 SOSIP.v9 (HIV-1 clade B, AMC008); assay: native gel or EMSA; Blue Native-PAGE of the purified SOSIP.v9 proteins, 3-12% Bis-Tris NuPAGE gel, 2 ug protein, Colloidal blue stain
# [3] = target: AMC009 SOSIP.v9 (HIV-1 clade B, AMC009); assay: negative-stain EM; purified SOSIPs incubated with Adjuplex, on carbon-covered copper grids, 2% uranyl formate; 2D class averages
# [4] = target: AMC009 SOSIP.v9 (HIV-1 clade B, AMC009); assay: native gel or EMSA; Blue Native-PAGE of the purified SOSIP.v9 proteins, 3-12% Bis-Tris NuPAGE gel, 2 ug protein, Colloidal blue stain
# [5] = target: AMC011 SOSIP.v9 (HIV-1 clade B, AMC011); assay: negative-stain EM; purified SOSIPs incubated with Adjuplex, on carbon-covered copper grids, 2% uranyl formate; 2D class averages
# [6] = target: AMC011 SOSIP.v9 (HIV-1 clade B, AMC011); assay: native gel or EMSA; Blue Native-PAGE of the purified SOSIP.v9 proteins, 3-12% Bis-Tris NuPAGE gel, 2 ug protein, Colloidal blue stain
# [7] = target: AMC016 SOSIP.v9 (HIV-1 clade B, AMC016); assay: negative-stain EM; purified SOSIPs incubated with Adjuplex, on carbon-covered copper grids, 2% uranyl formate; 2D class averages
# [8] = target: AMC016 SOSIP.v9 (HIV-1 clade B, AMC016); assay: native gel or EMSA; Blue Native-PAGE of the purified SOSIP.v9 proteins, 3-12% Bis-Tris NuPAGE gel, 2 ug protein, Colloidal blue stain
# [9] = target: TRO.11 SOSIP.v9 (HIV-1 clade B, TRO.11); assay: negative-stain EM; purified SOSIPs incubated with Adjuplex, on carbon-covered copper grids, 2% uranyl formate; 2D class averages
# [10] = target: TRO.11 SOSIP.v9 (HIV-1 clade B, TRO.11); assay: native gel or EMSA; Blue Native-PAGE of the purified SOSIP.v9 proteins, 3-12% Bis-Tris NuPAGE gel, 2 ug protein, Colloidal blue stain
substance,measurement,setting,value
AMC008 SOSIP.v9 (complex),stoichiometry N,[1],3
same,stoichiometry N,[2],3
AMC009 SOSIP.v9 (complex),stoichiometry N,[3],3
same,stoichiometry N,[4],3
AMC011 SOSIP.v9 (complex),stoichiometry N,[5],3
same,stoichiometry N,[6],3
AMC016 SOSIP.v9 (complex),stoichiometry N,[7],3
same,stoichiometry N,[8],3
TRO.11 SOSIP.v9 (complex),stoichiometry N,[9],3
same,stoichiometry N,[10],3
